Where no end group is shown, it is not given here.
Biological target: T1, antibody G1 Fab fragment
T1 construct: also called TEV-48125; fremanezumab
Assay: SPR (Biacore) competition: 50 nM G1 Fab pre-incubated 1 h with 10 µM competing peptide, then flowed over N-biotinylated human α-CGRP on SA chip
Excerpt: Y axis represents percentage of binding blocked by the presence of the competing peptide compared with the binding in the absence of the competing peptide.
All these peptides are amidated at the C-terminus.

T1 sequence (VH, as listed by the source, chain 1 of 2): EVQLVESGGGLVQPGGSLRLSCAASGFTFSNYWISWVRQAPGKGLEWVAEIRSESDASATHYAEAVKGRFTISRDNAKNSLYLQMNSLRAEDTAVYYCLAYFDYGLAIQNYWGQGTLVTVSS
T1 sequence (VL, as listed by the source, chain 2 of 2): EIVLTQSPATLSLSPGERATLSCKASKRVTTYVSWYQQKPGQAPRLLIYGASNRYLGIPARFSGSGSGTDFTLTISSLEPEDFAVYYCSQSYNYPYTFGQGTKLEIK

B1: 19-36 CONH2 (peptide)
peptide: SGGVVKNNFVPTNVGSKA-NH2
notes: also called peptide fragment 19-36 (amidated at the C-terminus) of human α-CGRP
Q: Does B1 bind?
A: Result: no binding (tested: 10 µM)
